Source: US8106168B2, “Metalloproteinase binding proteins” (Dyax Corp., priority 2005, dated 2012)

Target: MMP-14 (Homo sapiens, UniProt P50281)
Test: Selection and phage ELISA screening of anti-MMP-14 Fabs
Assay type: binding
Conditions: Fab from FAB310 phage display library
Method: Strategy I: A 100-fold excess of the FAB310 library (e.g., an amount of the library that should contain 100 copies of each library member) was depleted of streptavidin-binding antibodies by incubating the library with 200 μL of streptavidin beads for 1 hour at room temperature (RT) with rotation. 500 nM of biotinylated MMP-14 was coupled to streptavidin beads by incubation with 100 μL of streptavidin beads. The MMP-14 beads were then incubated with the streptavidin-depleted library for 1 hour at RT with rotation. The beads were then rinsed three times with 2% MTRIS/0.1% Tween, transferred to a fresh tube and washed an additional three times with 2% MTRIS/0.1% Tween, and transferred to a fresh tube and washed a final time with Round 1 TRIS buffer (50 mM TRIS; 50 mM CaCl2; 150 mM NaCl, pH 7.5).
MMP-14 binding antibodies were eluted from the beads by re-suspension in 1 mL 2% MTRIS containing 2.5 μM TIMP-2 and incubation for 1 hour at RT with rotation. The beads were then washed three times with 2% MTRIS/0.1% Tween, transferred to a fresh tube and washed three times with TRIS/0.1% Tween, and transferred to a fresh tube and washed a final time with TRIS. 1 mL output was used for infection of 9 mL TG1 bacteria (grown to OD600=0.5). The beads were further eluted by suspension in 1 mL 100 mM TEA for 10 minutes. The supernatant was neutralized with 500 μl TRIS/HCl pH 7.5. 1 mL of the second elution was used for infection of 9 mL TG1 bacteria (grown to OD600=0.5).
Two additional rounds of selection were carried out under the same conditions as the first round, except that the streptavidin beads were loaded with 100 nM biotinylated MMP-14 and the number of washes were doubled (6 times with 2% MTRIS/0.1% Tween, 6 times with TRIS/0.1% Tween and 2 times with TRIS), and Round 2/3 Tris buffer (50 mM TRIS; 5 mM CaCl2; 150 mM NaCl pH=7.5) was used for incubation and wash.
TIMP-2 was coupled to carboxylic beads, then complexed with a combination of biotinylated MMP-14 (500 nM each). The complexed beads were incubated with a 100 fold excess of FAB310 library that had been previously depleted by incubation with streptavidin beads and carboxylic beads. Elution/washing was carried out as for Strategy I.
Two additional rounds of selection were carried out, essentially as described for Strategy I, except that only 100 nM of each of MMP-14 were used in the bead complexes.
384-well plates were coated with biotinylated BSA (2 μg/ml in 50 mM TRIS; 5 mM CaCl2; 150 mM NaCl, pH 7.5), then washed 3 times with 50 mM TRIS; 5 mM CaCl2; 150 mM NaCl, pH 7.5; 0.1% Tween. Streptavidin was captured on the coated plates by incubation with 10 μg/mL streptavidin in 50 mM TRIS; 5 mM CaCl2; 150 mM NaCl pH 7.5; 0.5% Gelatin, followed by a wash with 50 mM TRIS; 5 mM CaCl2; 150 mM NaCl pH=7.5; 0.1% Tween. On the day the assay was to be performed, biotinylated MMP-14 (1 μg/ml) was captured in 50 mM TRIS; 5 mM CaCl2; 150 mM NaCl, pH 7.5.
95 clones were picked from each of Round 2 and Round 3 of each selection strategy, producing 12 masterplates. ELISA was run on the MiniTrak-5 deck according to SOP.

Molecule | bind to human MMP-14
M0039-D10: Fab that binds human MMP-14; DNA LV SEQ ID NO: 72, HV SEQ ID NO: 73 (antibody, V domains shown, Synthetically generated oligonucleotide) VL: QDIQMTQSPDTVSFSPGERASLSCRASQSVRSDLAWYQQKPGQAPRLLIYGASNRATGIPVRFSGSGSGTDFTLTISRLEPEDFAVYYCQQYGSSPLFTFGPGTKVDIK VH: EVQLLESGGGLVQPGGSLRLSCAASGFTFSMYNMAWVRQAPGKGLEWVSWIYSSGGLTLYADSVKGRFTISRDNSKNTLYLQMNSLRAEDTAVYYCAKGSNTYYFDASGLGAFNMWGQGTMVTVSS | bind to human MMP-14
M0040-B06: Fab that binds human MMP-14; DNA LV SEQ ID NO: 88, HV SEQ ID NO: 89 (antibody, V domains shown, Synthetically generated oligonucleotide) VL: QYELTQPPSASGTPGQRVTISCSGSSSNIGRNYVYWYQQVPGTAPKLLIYSNNQRPSGVPDRFSGSKSGTSASLVISGLRSEDEADYYCAAWDASLRGVFGGGTKLTVL VH: EVQLLESGGGLVQPGGSLRLSCAASGFTFSVYPMVWVRQAPGKGLEWVSYISPSGGFTFYADSVKGRFTISRDNSKNTLYLQMNSLRAEDTAVYYCARVPGGSRQDFDIWGQGTMVTVSS | bind to human MMP-14
M0038-H06: Fab that binds human MMP-14; DNA LV SEQ ID NO: 66, HV SEQ ID NO: 67 (antibody, V domains shown, Synthetically generated oligonucleotide) VL: QDIQMTQSPGTLSLSPGEGATLSCRASQIINPFYVAWYQQRPGQAPRLLIYASSRRAGGIPDRFSGSASGTDFTLTISRLEPEDFAVYYCQYFYNSMWTFGQGAKVEIR VH: EVQLLESGGGLVQPGGSLRLSCAASGFTFSWYNMTWVRQAPGKGLEWVSRISPSGGDTFYADSVKGRFTISRDNSKNTLYLQMNSLRAEDTAVYYCARAAIAPRPYGMDVWGQGTTVTVSS | bind to human MMP-14
M0038-E05: Fab that binds human MMP-14; DNA LV SEQ ID NO: 56, HV SEQ ID NO: 57 (antibody, V domains shown, Synthetically generated oligonucleotide) VL: QDIQMTQSPSSVSASVGDRVTITCRASQHISNWLAWYQQKPGEAPKLLISAASSLQSGVPSRFSGSGSGTDFTLTISSLQPEDFATYYCQQSYSTPLTFGGGTKVEIK VH: EVQLLESGGGLVQPGGSLRLSCAASGFTFSPYHMTWVRQAPGKGLEWVSSISSSGGHTEYADSVKGRFTISRDNSKNTLYLQMNSLRAEDTAVYYCATAWAGFTFNVWGQGTMVTVSS | bind to human MMP-14
M0030-D08: Fab that binds human MMP-14; DNA LV SEQ ID NO: 8, HV SEQ ID NO: 9 (antibody, V domains shown) VH: EVQLLESGGGLVQPGGSLRLSCAASGFTFSIYQMYWVRQAPGKGLEWVSSIVPSGGLTKYADSVKGRFTISRDNSKNTLYLQMNSLRAEDTAVYYCARERLRYFDWSDRVGESGDYWGQGTLVTVSS VL: QDIQMTQSPSSLSASVGDRVTMTCRAGQNIKSYLNWYQQKPGKAPQVLIYAASTLQSGVSSRFRGSGSGTHFTLTISDLQPGDSATYYCQQSFSTPRSFGQGTSWRS | bind to human MMP-14
M0039-G05: Fab that binds human MMP-14; DNA LV SEQ ID NO: 74, HV SEQ ID NO: 75 (antibody, V domains shown, Synthetically generated oligonucleotide) VL: QDIQMTQSPSFLSASIGDRVTITCRASQGINTFLAWYQQKPGIAPKLLIYAASTLQSGVPSRFSGSGSGTEFTLTISSLQPEDFATYYCQQLNGYRSFGQGTRLEMK VH: EVQLLESGGGLVQPGGSLRLSCAASGFTFSNYEMGWVRQAPGKGLEWVSWIYSSGGYTSYADSVKGRFTISRDNSKNTLYLQMNSLRAEDTATYYCARDPYYYDSSGYYYYYYYYMDVWGKGTTVTVSS | bind to human MMP-14
M0038-E12: Fab that binds human MMP-14; DNA LV SEQ ID NO: 60, HV SEQ ID NO: 61 (antibody, V domains shown, Synthetically generated oligonucleotide) VL: QDIQMTQSPSSLSASVGDSVTITCRASQNINSYLNWYQQKPGKAPKLLIYVASNLQRGVPSRFGGSGSGTDFTLTITSLQPEDFATYSCQQTYSTPLTFGGGTKVEIK VH: EVQLLESGGGLVQPGGSLRLSCAASGFTFSKYWMMWVRQAPGKGLEWVSVIYPSGGITYYADSVKGRFTISRDNSKNTLYLQMNSLRAEDTAVYYCARLPSWGFDALDIWGQGTMVTVSS | bind to human MMP-14
M0039-G07: Fab that binds human MMP-14; DNA LV SEQ ID NO: 76, HV SEQ ID NO: 77 (antibody, V domains shown, Synthetically generated oligonucleotide) VL: QDIQMTQSPGTLSLSPGERATLSCRASQSVNSRFLAWYQQKPGQAPRLLIYSTSTRATGIPDRFSGSGSGTDFTLTISRLEPEDFAVYYCQRYGSSPTWTFGQGTKVEIK VH: EVQLLESGGGLVQPGGSLRLSCAASGFTFSRYVMDWVRQAPGKGLEWVSRISPSGGHTDYADSVKGRFTISRDNSKNTLYLQMNSLRAEDTAVYYCARETVRGVYFDYWGQGTLVTVSS | bind to human MMP-14
M0039-D02: Fab that binds human MMP-14; DNA LV SEQ ID NO: 70, HV SEQ ID NO: 71 (protein, Synthetically generated oligonucleotide) chain 1: QDIQMTQSPSSLSASVGDRVTITCRASQSISSYLNWYQQKPGKAPKLLIYDASNLETGVPSRFSGSGSGTDFTFTISSLQPEDIATYYCQQFDDLPLTFAGGTKVELKRT chain 2: EVQLLESGGGLVQPGGSLRLSCAASGFTFSLYVMIWVRQAPGKGLEWVSGIYSSGGDTYYADSVKGRFTISRDNSKNTLYLQMNSLRAEDTAVYYCARGQQLGGGAFDIWGQGTMVTVSS | bind to human MMP-14
M0040-A03: Fab that binds human MMP-14; DNA LV SEQ ID NO: 80, HV SEQ ID NO: 81 (antibody, V domains shown, Synthetically generated oligonucleotide) VL: QDIQMTQSPSFVSASVGDRVTISCRASHNINTWLAWYQQKPGKAPNLLIYSASNLQGGVPSRFSGSGSGTDFTLTISSLQPGDFATYYCQQASSFPITFGQGTRLEIK VH: EVQLLESGGGLVQPGGSLRLSCAASGFTFSNYMMIWVRQAPGKGLEWVSWISPSGGYTFYADSVKGRFTISRDNSKNTLYLQMNSLRAEDTAVYYCARGYYDILTGMVGGGAFDIWGQGTTVTVSS | bind to human MMP-14
M0039-B07: Fab that binds human MMP-14; DNA LV SEQ ID NO: 68, HV SEQ ID NO: 69 (antibody, V domains shown, Synthetically generated oligonucleotide) VL: QDIQMTQSPLSLSASVGDRVTITCRASQGISNYLAWYQQKPGKVPKLLIYAASTLQSGVPSRFSGSGSGTDFTLTISSLQPEDVATYYCQKYNSARLTFGGGTKVEIK VH: EVQLLESGGGLVQPGGSLRLSCAASGFTFSLYPMLWVRQAPGKGLEWVSGISPSGGQTFYADSVKGRFTISRDNSKNTLYLQMNSLRAEDTAVYYCARMAYYSGYFDLWGRGTLVTVSS | bind to human MMP-14
